This experiment concerns the target T1, biotin-labeled human PCSK9 protein (residues 30–692) (human, UniProt Q8NBP7 30-692, biotin-labeled (site not stated)).
T1 construct: PCSK9, human, residues 30–692; written as one chain; Held on streptavidin donor beads by the biotin; also called biotinylated PCSK9; full length PCSK9; source: baculovirus expression, purified recombinant
Put plainly: AlphaScreen or HTRF; competition: biotin-PCSK9 (15 nM) and His-LDLR ectodomain (15 nM) mixed with increasing AnxA2 peptide, 60 min at 20°C in 25 mM Hepes pH 7.4, 100 mM NaCl, 0.5 mM CaCl2, 0.1% BSA; streptavidin donor and nickel chelate acceptor beads, overnight at 20°C. The following applies: both partners purified.

T1 sequence (Q8NBP7 30-692): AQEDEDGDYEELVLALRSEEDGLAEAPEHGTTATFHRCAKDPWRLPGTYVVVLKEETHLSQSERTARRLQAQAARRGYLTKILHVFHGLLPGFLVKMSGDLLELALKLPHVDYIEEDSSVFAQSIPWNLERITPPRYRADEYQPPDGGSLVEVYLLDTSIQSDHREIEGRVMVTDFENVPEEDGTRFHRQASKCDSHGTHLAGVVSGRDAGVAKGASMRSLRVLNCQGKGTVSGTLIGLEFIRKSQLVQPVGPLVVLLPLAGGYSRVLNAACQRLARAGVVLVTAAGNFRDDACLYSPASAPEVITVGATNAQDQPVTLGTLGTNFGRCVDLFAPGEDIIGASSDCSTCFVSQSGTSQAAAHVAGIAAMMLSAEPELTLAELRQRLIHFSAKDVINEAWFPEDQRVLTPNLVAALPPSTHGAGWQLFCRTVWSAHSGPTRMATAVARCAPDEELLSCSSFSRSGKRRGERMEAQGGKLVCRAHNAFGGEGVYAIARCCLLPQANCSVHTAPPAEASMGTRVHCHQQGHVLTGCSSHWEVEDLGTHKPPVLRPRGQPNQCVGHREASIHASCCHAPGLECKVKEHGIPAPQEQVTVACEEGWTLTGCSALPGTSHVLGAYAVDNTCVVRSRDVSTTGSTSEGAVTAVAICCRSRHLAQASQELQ

B1: 73 aa peptide corresponding to the AnxA2 R1 domain (residues 25–97) (peptide, UniProt P07355 25-97, looked up)
peptide: GSVKAYTNFDAERDALNIETAIKTKGVDEVTIVNILTNRSNAQRQDIAFAYQRRTKKELASALKSALSGHLET
modifications: N-terminus acetylated; C-terminal amide
notes: annexin A2 (AnxA2), residues 25–97 of the R1 domain; also called 73-mer AnxA2 peptide (aa 25–97); long peptide form; source: synthetic peptide (solid phase synthesis, RP-HPLC purified)
With B1, the IC50 (as a rule, the concentration needed to halve the response being measured) is approximately 600 nM.

B2: intermediate 49 aa AnxA2 peptide (residues 49–97) (peptide, UniProt P07355 49-97, looked up)
peptide: Ac-KGVDEVTIVNILTNRSNAQRQDIAFAYQRRTKKELASALKSALSGHLET-NH2
notes: annexin A2 (AnxA2), residues 49–97 of the R1 domain; also called intermediate length peptide (49–97); aa 49–97 peptide; source: synthetic peptide (solid phase synthesis, RP-HPLC purified)
As for B2, the “fold lower apparent potency than the peptide 25–97” value is approximately 20 fold.
